Measurements reported in article PMC3912200, “Structural and Functional Characterization of Cargo-Binding Sites on the μ4-Subunit of Adaptor Protein Complex 4” (PLoS ONE, 2014).
Numbering of substitutions follows the chain as printed. Names may count otherwise.

Key:
[1] = biological target: T1, recombinant μ4 C-terminal domain, wild-type (Homo sapiens, UniProt O00189); experiment: Isothermal titration calorimetry with wild-type μ4; assay type: binding; settings: canonical YXXØ signal peptides, 28°C, pH 7.4, stoichiometry and Kd N/D
T1 construct: recombinant C-terminal domain of human μ4 (residues 160-453); GST followed by TEV protease cleavage site (N, cleaved yes); made in house; host or cells: E. coli B834(DE3)pLysS
T1 sequence (O00189 160-453): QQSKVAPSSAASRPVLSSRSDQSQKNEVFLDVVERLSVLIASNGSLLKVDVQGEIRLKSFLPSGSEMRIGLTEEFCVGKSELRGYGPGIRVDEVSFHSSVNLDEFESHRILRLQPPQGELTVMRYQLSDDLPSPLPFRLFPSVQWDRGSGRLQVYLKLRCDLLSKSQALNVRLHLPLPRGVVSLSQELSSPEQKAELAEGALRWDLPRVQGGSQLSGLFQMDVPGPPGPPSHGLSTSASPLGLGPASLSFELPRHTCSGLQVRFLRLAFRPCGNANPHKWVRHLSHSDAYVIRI
Description: Recombinant μ4 C-terminal variants were dialyzed overnight at 4°C against excess ITC buffer (50 mM Tris-HCl, pH 7.4, 150 mM NaCl), and an APP peptide ([sequence]), a CD63 peptide (SGYEVM), or a TGN38 peptide (SDYQRL; New England Peptide, Gardner, MA) were also prepared in ITC buffer. All ITC experiments were carried out at 28°C using an iTC200 instrument (GE Healthcare). […] Titration curves were analyzed using Origin software (MicroCal). The binding constant corresponding to each μ4 construct was calculated by fitting the curves to a one-site model.
Isothermal titration calorimetry of recombinant C-terminal domain of wild-type μ4 with the TGN38 SDYQRL peptide (C), or the CD63 SGYEVM peptide (D).

C-terminal domain of μ3A = settings: previously shown; ref [18]; cited from earlier work
Description: (§1) This tyrosine-based signal is related to the YXXØ motif, which is the signal contained in the cytosolic tail of transmembrane proteins that binds to a different site on the μ2 subunit of AP-2 [28], or on the μ3A subunit of AP-3 [30]. In this study, we wanted to determine whether this putative second binding site on μ4, referred here as the μ2-binding site (Figure 1, A and B), played any role in the binding to the YKFFE signal of APP ...

cytosolic tail of APP = settings: mutations at μ4-binding site; previously identified; ref [18]; cited from earlier work
Description: as §1

APP-GFP = experiment: Distribution of APP-GFP in MDA-MB-231 cells; assay type: cell-based, human; settings: for APP redistribution (figure title): APP-GFP F615P/D664A, EEA1, TGN46 staining; for change in distribution of APP: HA-epitope-tagged constructs, 24 h after transfection, EEA1/TGN46 immunofluorescence
Description: H4 human neuroglioma or MDA-MB-231 human mammary gland epithelial cells obtained from the American Type Culture Collection (Manassas, VA) were maintained in DMEM (H4) or DMEM/F12 (MDA-MB-231) supplemented with 10% (v/v) fetal bovine serum (FBS), 100 U/ml penicillin and 100 µg/ml streptomycin (Life Technologies). Transfections were carried out using Lipofectamine 2000 (Life Technologies) for 1 h at 37°C in the absence of FBS, and cells were analyzed 16, 24 or up to 36-h after transfection, for which we observed no notorious signs of loss in cell viability. SDS-PAGE, immunoblotting, and immunoprecipitation were performed as described. H4 cells after 16 h of transfection were washed twice with cold phosphate buffered saline supplemented with 0.1 mM CaCl2 and 1 mM MgCl2 (PBS-Ca/Mg), and incubated at 4°C for 1 h in lysis buffer (50 mM Tris-HCl pH 7.4, 150 mM NaCl, 1 mM EDTA, 1% (v/v) Triton X-100, and a cocktail of protease inhibitors). Soluble extracts were subjected to overnight immunoprecipitation at 4°C either with rabbit anti-HA-epitope antibody (kindly provided by R. Hegde, MRC Laboratory of Molecular Biology, Cambridge, UK) or with mouse antibody to the ε subunit of AP-4 (BD Biosciences) immobilized onto protein A- or a 1∶1 mix of protein A- and protein-G Sepharose beads (GE Healthcare), respectively. Soluble extracts and immunoprecipitates were processed by SDS-PAGE and blotted with horseradish peroxidase-conjugated mouse anti-HA antibody (Macs Miltenyi Biotec) or with mouse antibody to the ε subunit of AP-4.
Indirect immunofluorescence staining of fixed, permeabilized cells was performed as previously described, using sheep polyclonal antibody anti-TGN46 (Serotec), and mouse monoclonal antibody anti-EEA1 (BD Biosciences) or rabbit polyclonal antibody anti-EEA1 (Santa Cruz Biotechnology), followed by the secondary antibodies Alexa-647–conjugated donkey anti-mouse IgG, Alexa-594–conjugated donkey anti-rabbit IgG, or Alexa-594– or -647–conjugated donkey anti-sheep IgG (Life Technologies). Images were acquired either with an Olympus FluoView FV1000 scanning unit fitted on an inverted Olympus IX81 microscope and equipped with a PlanApo 60x oil immersion objective (NA 1.40; Olympus, Melville, NY), using similar settings as described previously, or with an AxioObserver.D1 microscope equipped with a PlanApo 63x oil immersion objective (NA 1.4), and an AxioCam MRm digital camera (Carl Zeiss). Quantitative analysis of colocalization was performed as we previously described, with minor modifications. Briefly, 12-bit images were acquired under identical settings avoiding signal saturation, and corrected for noise, cross-talk, and background signals on each set of images. The signals of TGN46 or EEA1 in each set of images were used in Image J (version 1.44o; Wayne Rasband, NIH, http://imagej.nih.gov) to define masks regarded as Golgi/TGN or early endosomes localization, respectively. The percentage of localization in each compartment was calculated for each cell (n = 10–15) subtracting either the Golgi/TGN or the early endosomes mask from the total integrated pixel intensity of APP-GFP, and the remainder of the signal was considered as in the ‘rest of the cell’.
We next examined the functional role of both the μ2- and the μ4-binding site of μ4 on the intracellular trafficking of APP. We have shown that the YKFFE-μ4 interaction is functional in vivo because its disruption by depletion of μ4 by RNAi produces a shift in the distribution of APP from endosomes to the TGN [18]. To evaluate now the function of each binding site for tyrosine-based signals, we tested a dominant-negative effect by overexpressing untagged or HA-epitope-tagged full-length wild-type μ4 or the variants untagged or HA-epitope-tagged μ4-D190A, μ4-D190S, μ4-F255A or μ4-R283D in H4 neuroglioma cells, as well as in MDA-MB-231 mammary gland epithelial cells, and examined by immunofluorescence the distribution of APP-GFP. […]

SDYQRL [TGN38 SDYQRL peptide, peptide bearing the canonical YXXØ signal of TGN38]
interaction (ITC) [1]: undetectable
binding to C-terminal domain of μ3A (C-terminal domain of μ3A): bind well

B1: H256A: μ4 mutant, μ4-binding site, reported previously (protein, UniProt O00189 1-453, looked up, variant H256A)
AP-4 complex subunit mu-1: MISQFFILSSKGDPLIYKDFRGDSGGRDVAELFYRKLTGLPGDESPVVMHHHGRHFIHIRHSGLYLVVTTSENVSPFSLLELLSRLATLLGDYCGSLGEGTISRNVALVYELLDEVLDYGYVQTTSTEMLRNFIQTEAVVSKPFSLFDLSSVGLFGAETQQSKVAPSSAASRPVLSSRSDQSQKNEVFLDVVERLSVLIASNGSLLKVDVQGEIRLKSFLPSGSEMRIGLTEEFCVGKSELRGYGPGIRVDEVSFASSVNLDEFESHRILRLQPPQGELTVMRYQLSDDLPSPLPFRLFPSVQWDRGSGRLQVYLKLRCDLLSKSQALNVRLHLPLPRGVVSLSQELSSPEQKAELAEGALRWDLPRVQGGSQLSGLFQMDVPGPPGPPSHGLSTSASPLGLGPASLSFELPRHTCSGLQVRFLRLAFRPCGNANPHKWVRHLSHSDAYVIRI
effect of mutation on binding to the APP YKFFE signal (cytosolic tail of APP): null effect

B2: E265A: μ4 mutant, μ4-binding site, reported previously (protein, UniProt O00189 1-453, looked up, variant E265A)
AP-4 complex subunit mu-1: B1 AP-4 complex subunit mu-1 with A256H, E265A
effect of mutation on binding to the APP YKFFE signal (cytosolic tail of APP): null effect

B3: R283A: μ4 mutant, μ4-binding site, reported previously (protein, UniProt O00189 1-453, looked up, variant R283A)
AP-4 complex subunit mu-1: B1 AP-4 complex subunit mu-1 with A256H, R283A
effect of mutation on binding to the APP YKFFE signal (cytosolic tail of APP): null effect

B4: F255A: μ4 mutant, μ4-binding site, Y2H construct (protein, UniProt O00189 1-453, looked up, variant F255A)
AP-4 complex subunit mu-1: B1 AP-4 complex subunit mu-1 with F255A, A256H
effect of mutation on binding to the APP YKFFE signal (cytosolic tail of APP): sensitivity

B5: µ4-F255A-HA: HA-epitope-tagged full-length μ4-F255A, overexpressed (protein)
chain: B1 AP-4 complex subunit mu-1 with F255A, A256H
modifications: left off: HA, end not stated, kept
APP redistribution (figure title) (APP-GFP; 24 h): APP redistributes from endosomes to the TGN
change in distribution of APP (APP-GFP): strong redistribution of APP from endosomes to the TGN

B6: R283D: μ4 mutant, μ4-binding site, Y2H construct (protein, UniProt O00189 1-453, looked up, variant R283D)
AP-4 complex subunit mu-1: B1 AP-4 complex subunit mu-1 with A256H, R283D
effect of mutation on binding to the APP YKFFE signal (cytosolic tail of APP): sensitivity

B7: µ4-HA: HA-epitope-tagged full-length wild-type μ4, overexpressed (protein)
chain: B1 AP-4 complex subunit mu-1 with A256H
modifications: left off: HA, end not stated, kept
change in distribution of APP (APP-GFP): no apparent change in the distribution of APP

B8: L261S: μ4 mutant, μ4-binding site, Y2H construct (protein, UniProt O00189 1-453, looked up, variant L261S)
AP-4 complex subunit mu-1: B1 AP-4 complex subunit mu-1 with A256H, L261S
effect of mutation on binding to the APP YKFFE signal (cytosolic tail of APP): sensitivity

B9: µ4-D190A-HA: HA-epitope-tagged full-length μ4-D190A, overexpressed (protein)
chain: B1 AP-4 complex subunit mu-1 with D190A, A256H
modifications: left off: HA, end not stated, kept
change in distribution of APP (APP-GFP): minor redistribution of APP to the TGN

B10: µ4-R283D-HA: HA-epitope-tagged full-length μ4-R283D, overexpressed (protein)
chain: B1 AP-4 complex subunit mu-1 with A256H, R283D
modifications: left off: HA, end not stated, kept
APP redistribution (figure title) (APP-GFP; 24 h): APP redistributes from endosomes to the TGN
change in distribution of APP (APP-GFP): strong redistribution of APP from endosomes to the TGN

B11: S257A: μ4 mutant, μ4-binding site, reported previously (protein, UniProt O00189 1-453, looked up, variant S257A)
AP-4 complex subunit mu-1: B1 AP-4 complex subunit mu-1 with A256H, S257A
effect of mutation on binding to the APP YKFFE signal (cytosolic tail of APP): null effect

B12: μ4-D190S: D190S mutant of μ4 (C-terminal domain in vitro; full-length, HA-tagged or untagged, in cells) (protein)
chain: T1 sequence (O00189 160-453) with D31S
modifications: left off: GST, N-terminal, cleaved
effect on localization of APP-GFP in endosomes (APP-GFP; either HA-epitope-tagged or untagged, 24 h): little or no effect

B13: μ4-R283D: μ4 with the single mutation R283D at the μ4-binding site (C-terminal domain; untagged full-length in b45) (protein)
chain: T1 sequence (O00189 160-453) with R124D
modifications: left off: GST, N-terminal, cleaved
APP redistribution (figure title) (APP-GFP; 24 h): APP redistributes from endosomes to the TGN
